Tests used:
Assay in all cases: SPR; IgGs or Fc fusions captured on antihuman Fc polyclonal antibodies amine-coupled to a CM5 chip; spike trimer or CD3 epsilon-delta heterodimer injected; blank flow cell subtracted; 1:1 Langmuir model, simultaneous global fit of ka and kd, KD = kd/ka; BIAcore 2000 (methods) or BIAcore T100 (footnote of Table S3)
[1] = target: ectodomain of the S trimer from the prototypic SARS-CoV-2 Wuhan-Hu-1 strain (SARS-CoV-2 Wuhan-Hu-1) (UniProt P0DTC2)
[2] = target: SS12, anti-S/CD3 bispecific CrossMab from S3H3/UCHT1
[3] = target: SA07, anti-S/CD3 bispecific antibody-like molecule from ACE2-Fc/UCHT1 (UniProt Q9BYF1)

Sequence of SS12, anti-S/CD3 bispecific CrossMab from S3H3/UCHT1 (heavy, as listed by the source, chain 1 of 4): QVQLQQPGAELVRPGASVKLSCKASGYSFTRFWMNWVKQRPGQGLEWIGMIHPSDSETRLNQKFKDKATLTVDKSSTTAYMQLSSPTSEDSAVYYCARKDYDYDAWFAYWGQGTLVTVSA
Sequence of SS12, anti-S/CD3 bispecific CrossMab from S3H3/UCHT1 (heavy, as listed by the source, chain 2 of 4): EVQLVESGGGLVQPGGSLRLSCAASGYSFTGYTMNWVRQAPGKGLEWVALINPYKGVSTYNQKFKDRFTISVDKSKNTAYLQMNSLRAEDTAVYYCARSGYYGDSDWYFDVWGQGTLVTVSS
Sequence of SS12, anti-S/CD3 bispecific CrossMab from S3H3/UCHT1 (light, as listed by the source, chain 3 of 4): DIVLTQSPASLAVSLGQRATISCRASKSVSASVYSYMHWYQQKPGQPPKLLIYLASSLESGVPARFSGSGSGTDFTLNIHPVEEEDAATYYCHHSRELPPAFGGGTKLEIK
Sequence of SS12, anti-S/CD3 bispecific CrossMab from S3H3/UCHT1 (light, as listed by the source, chain 4 of 4): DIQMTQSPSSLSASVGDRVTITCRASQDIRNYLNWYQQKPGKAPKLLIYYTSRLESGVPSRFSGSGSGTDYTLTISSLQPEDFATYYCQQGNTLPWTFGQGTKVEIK

Substance “SC02, anti-S/CD3 bispecific CrossMab from CV3-25/UCHT1 (bispecific antibody)” has a Kd [1] of 4.82 nM, a koff [1] of 0.00436 s⁻¹ and a kon [1] of 904000 M⁻¹ s⁻¹.

“ectodomain of the S trimer from the prototypic SARS-CoV-2 Wuhan-Hu-1 strain (from UniProt P0DTC2 14-1213) (domain or fragment)” was tested, and the Kd [2] was 6.2 nM and the Kd [3] was 9.39 nM.
